Measurements taken from patent publication US20260125469A1 (Hoffmann-La Roche, published 2026).
Numbering of substitutions follows the chain as printed. Names may count otherwise. Read-outs that look alike come from different tables or passages of the source.

B1: CEACAM5-TCB, CEACAM5 CD3 variant P035.093 (bispecific antibody, human IgG1, kappa, L234A L235A)
heavy 1: not shown
heavy 2: QVQLVQSGAEVKKPGSSVKVSCKASGFNIKDTYMHWVRQAPGQGLEWMGRIDPANGNSKYVPKFQGRVTITADTSTSTAYMELSSLRSEDTAVYYCAPFGYYVSDYAMAYWGQGTLVTVSSASTKGPSVFPLAPSSKSTSGGTAALGCLVEDYFPEPVTVSWNSGALTSGVHTFPAVLQSSGLYSLSSVVTVPSSSLGTQTYICNVNHKPSNTKVDEKVEPKSCDKTHTCPPCPAPEAAGGPSVFLFPPKPKDTLMISRTPEVTCVVVDVSHEDPEVKFNWYVDGVEVHNAKTKPREEQYNSTYRVVSVLTVLHQDWLNGKEYKCKVSNKALGAPIEKTISKAKGQPREPQVCTLPPSRDELTKNQVSLSCAVKGFYPSDIAVEWESNGQPENNYKTTPPVLDSDGSFFLVSKLTVDKSRWQQGNVFSCSVMHEALHNHYTQKSLSLSP
light 1: EIVLTQSPATLSLSPGERATLSCRAGESVDIFGVGFLHWYQQKPGQAPRLLIYRASNRATGIPARFSGSGSGTDFTLTISSLEPEDFAVYYCQQTNEDPYTFGQGTKLEIKRTVAAPSVFIFPPSDRKLKSGTASVVCLLNNFYPREAKVQWKVDNALQSGNSQESVTEQDSKDSTYSLSSTLTLSKADYEKHKVYACEVTHQGLSSPVTKSFNRGEC
light 2: EVQLLESGGGLVQPGGSLRLSCAASGFTFSSYAMNWVRQAPGKGLEWVSRIRSKYNNYATYYADSVKGRFTISRDDSKNTLYLQMNSLRAEDTAVYYCVRASNFPASYVSYFAYWGQGTLVTVSSASVAAPSVFIFPPSDEQLKSGTASVVCLLNNFYPREAKVQWKVDNALQSGNSQESVTEQDSKDSTYSLSSTLTLSKADYEKHKVYACEVTHQGLSSPVTKSFNRGEC
notes: 2+1 IgG CrossFab, inverted; human IgG1 Fc, knob-into-hole, PGLALA; also called P035.093 in CEACAM5-TCB format
B2: TYRP1-TCB with the parental CD3 binder CD3orig (bispecific antibody, human IgG1, kappa, L234A L235A)
heavy 1: not shown
heavy 2: QVQLVQSGAEVKKPGASVKVSCKASGFNIKDYFLHWVRQAPGQGLEWMGWINPDNGNTVYAQKFQGRVTMTADTSTSTVYMELSSLRSEDTAVYYCTRRDYTYEKAALDYWGQGTLVTVSSASTKGPSVFPLAPSSKSTSGGTAALGCLVEDYFPEPVTVSWNSGALTSGVHTFPAVLQSSGLYSLSSVVTVPSSSLGTQTYICNVNHKPSNTKVDEKVEPKSCDKTHTCPPCPAPEAAGGPSVFLFPPKPKDTLMISRTPEVTCVVVDVSHEDPEVKFNWYVDGVEVHNAKTKPREEQYNSTYRVVSVLTVLHQDWLNGKEYKCKVSNKALGAPIEKTISKAKGQPREPQVCTLPPSRDELTKNQVSLSCAVKGFYPSDIAVEWESNGQPENNYKTTPPVLDSDGSFFLVSKLTVDKSRWQQGNVFSCSVMHEALHNHYTQKSLSLSP
light 1: DIQMTQSPSSLSASVGDRVTITCRASGNIYNYLAWYQQKPGKVPKLLIYDAKTLADGVPSRFSGSGSGTDFTLTISSLQPEDVATYYCQHFWSLPFTFGQGTKLEIKRTVAAPSVFIFPPSDRKLKSGTASVVCLLNNFYPREAKVQWKVDNALQSGNSQESVTEQDSKDSTYSLSSTLTLSKADYEKHKVYACEVTHQGLSSPVTKSFNRGEC
light 2: B1 light 2 with S31T, A101H, S102G, P105G, A106N, Y111W
notes: Same 2+1 format as m1; also called CD3orig in TCB format
B3: TYRP1-TCB with anti-CD3 antibody clone P021.045 (bispecific antibody, human IgG1, kappa, L234A L235A)
heavy 1: not shown
heavy 2: B2 heavy 2
light 1: B2 light 1
light 2: B1 light 2 with A106S
notes: human IgG1 Fc, knob-into-hole, P329G L234A L235A; also called P021.045 in TCB format
B4: TYRP1-TCB with anti-CD3 antibody clone P035.093 (bispecific antibody, human IgG1, kappa, L234A L235A)
heavy 1: not shown
heavy 2: B2 heavy 2
light 1: B2 light 1
light 2: B1 light 2
notes: human IgG1 Fc, knob-into-hole, P329G L234A L235A; also called P035.093 in TCB format
B5: CEACAM5-TCB, CEACAM5 CD3 variant P004.042 (bispecific antibody, human IgG1, kappa, L234A L235A)
heavy 1: not shown
heavy 2: B1 heavy 2
light 1: B1 light 1
light 2: B1 light 2 with T28Q, S30D, S31N, S53T, N57E, A106Q, A113G
notes: 2+1 IgG CrossFab, inverted; human IgG1 Fc, knob-into-hole, PGLALA; also called P004.042 in CEACAM5-TCB format
B6: CEACAM5-TCB with CD3orig as CD3 binder (bispecific antibody, human IgG1, kappa, L234A L235A)
heavy 1: not shown
heavy 2: B1 heavy 2
light 1: B1 light 1
light 2: B1 light 2 with S31T, A101H, S102G, P105G, A106N, Y111W
notes: also called CD3orig in CEACAM5-TCB format
B7: TYRP1-TCB with anti-CD3 antibody clone P004.042 (bispecific antibody, human IgG1, kappa, L234A L235A)
heavy 1: not shown
heavy 2: B2 heavy 2
light 1: B2 light 1
light 2: B1 light 2 with T28Q, S30D, S31N, S53T, N57E, A106Q, A113G
notes: human IgG1 Fc, knob-into-hole, P329G L234A L235A; also called P004.042 in TCB format
B8: TYRP1-TCB with anti-CD3 antibody clone P035.064 (bispecific antibody, human IgG1, kappa, L234A L235A)
heavy 1: not shown
heavy 2: B2 heavy 2
light 1: B2 light 1
light 2: B1 light 2 with T28D, S30D, S31N, Y55H, N57G, A106S, A113G
notes: human IgG1 Fc, knob-into-hole, P329G L234A L235A; also called P035.064 in TCB format

What was measured:
[1] = molecular target: T1, Human CD3ε stalk-Fc(knob)-Avi/CD3δ stalk-Fc(hole) (human); assay: SPR on immobilized human CD3ε/δ after stress, relative to sample kept at -80°C pH 6
T1 construct: Heterodimer of CD3 delta and CD3 epsilon ectodomains fused to human Fc with knob-into-hole; also called human CD3ε/δ; CD3 antigen
Description: (§1) In order to assess the effect of the deamidation site removal and its effect on the stability of the antibodies, the optimized anti-CD3 antibodies (in TCB format) were incubated for 14 days at 37° C., pH 7.4 and at 40° C., pH 6 and further analyzed by SPR for their binding capability to human CD3ε/δ. Samples stored at −80° C. pH 6 were used as reference. The reference samples and the samples stressed at 40° C. were in 20 mM His, 140 mM NaCl, pH 6.0, and the samples stressed at 37° C. in PBS, pH 7.4, all at a concentration of 1.0 mg/ml. After the stress period (14 days) samples in PBS were dialyzed back to 20 mM His, 140 mM NaCl, pH 6.0 for further analysis.
(§2) All SPR experiments were performed on a Biacore T200 instrument (GE Healthcare) at 25° C. with HBS-P+ (10 mM HEPES, 150 mM NaCl pH 7.4, 0.05% Surfactant P20) as running and dilution buffer. Biotinylated human CD3ε/δ (see Example 3, SEQ ID NOs 41 and 42) as well as biotinylated anti-huIgG (Capture Select, Thermo Scientific, #7103262100) were immobilized on a Series S Sensor Chip SA (GE Healthcare, #29104992), resulting in surface densities of at least 1000 resonance units (RU). Anti-CD3 antibodies with a concentration of 2 μg/ml were injected for 30 s at a flow rate of 5 μl/min, and dissociation was monitored for 120 s. The surface was regenerated by injecting 10 mM glycine pH 1.5 for 60 s. Bulk refractive index differences were corrected by subtracting blank injections and by subtracting the response obtained from a blank control flow cell. For evaluation, the binding response 5 seconds after injection end was taken. To normalize the binding signal, the CD3 binding was divided by the anti-huIgG response (the signal (RU) obtained upon capture of the CD3 antibody on the immobilized anti-huIgG antibody). The relative binding activity was calculated by referencing each temperature stressed sample to the corresponding, non-stressed sample.
The experiment was performed as described in Example 4, using the TCB molecules prepared in Example 7.

[2] = molecular target: T2, Cynomolgus CD3ε stalk-Fc(knob)-Avi/CD3δ stalk-Fc(hole) (cynomolgus); assay: SPR, TCB captured by anti-PG antibody, antigen as analyte, 25°C
T2 construct: also called cynomolgus CD3ε/δ
Excerpt: (§3) For affinity measurements, TCB molecules were captured on a C1 sensorchip (GE Healthcare) surface with immobilized anti-Fc(P329G) IgG (an antibody that specifically binds human IgG₁ Fc(P329G); “anti-PG antibody”—see WO 2017/072210, incorporated herein by reference). The experimental setup is schematically depicted in FIG. 3. Capture IgG was coupled to the sensorchip surface by direct immobilization of around 400 resonance units (RU) using the standard amine coupling kit (GE Healthcare Life Sciences).
(§4) Kinetic constants were derived using the Biacore T200 Evaluation Software (GE Healthcare Life Sciences), to fit rate equations for 1:1 Langmuir binding by numerical integration. The half-life (t_{1/2}) of the interaction was calculated using the formula t_{1/2}=ln2/koff.
(§5) To analyze the interaction to CD3, TCB molecules were captured for 240 s at 25 nM with a flow rate of 10 μl/min. Human and cynomolgus CD3F stalk-Fc(knob)-Avi/CD36-stalk-Fc(hole) were passed at a concentration of 0.14-100 nM with a flow rate of […] through the flow cells for 240 s. The dissociation was monitored for 800 s.

[3] = molecular target: T1, Human CD3ε stalk-Fc(knob)-Avi/CD3δ …; assay: as above
Excerpt: as §3, §4, §5

[4] = molecular target: human CD3 on cells (CD3ε) (human, UniProt P07766 23-207); assay: cell-based or functional assay
Sequence of human CD3 on cells (CD3ε) (P07766 23-207 limits assumed): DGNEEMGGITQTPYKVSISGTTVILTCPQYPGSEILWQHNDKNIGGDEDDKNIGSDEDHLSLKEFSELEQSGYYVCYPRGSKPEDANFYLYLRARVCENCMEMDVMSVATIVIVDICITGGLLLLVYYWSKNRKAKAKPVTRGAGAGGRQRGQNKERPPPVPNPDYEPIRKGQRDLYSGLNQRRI

[5] = molecular target: T1, Human CD3ε stalk-Fc(knob)-Avi/CD3δ …; assay: SPR on immobilized human CD3ε/δ after stress, relative to sample kept at -80°C pH 6; remark: listed apart in the source
Description: as §1, §2

[6] = molecular target: T1, Human CD3ε stalk-Fc(knob)-Avi/CD3δ …; assay: SPR, TCB captured by anti-PG antibody, antigen as analyte, 25°C; remark: listed apart in the source
Excerpt: as §3
(§6) To analyze the interaction to CD3, TCB molecules were captured for 80 s at 25 nM with a flow rate of 10 μl/min. […] The dissociation was monitored for 800 s.
as §4

[7] = molecular target: T2, Cynomolgus CD3ε stalk-Fc(knob)-Avi/CD3δ …; assay: as above; remark: listed apart in the source
Excerpt: as §3, §6, §4

Binder	binding activity [%] after 2 weeks at pH 6.0/40°C [1] [%]	binding activity [%] after 2 weeks at pH 7.4/37°C [1] [%]	Kd [3] [nM]	koff [3] [s⁻¹]	kon [3] [M⁻¹ s⁻¹]	t1/2 [3] [min]	EC50 24 h (pM), T-cell mediated lysis of CEACAM5-expressing LS180 tumor cells [4] [pM]	EC50 48 h (pM), T-cell mediated lysis of CEACAM5-expressing LS180 tumor cells [4] [pM]	binding activity [%] after 2 weeks at pH 6.0/40°C [5] [%]	binding activity [%] after 2 weeks at pH 7.4/37°C [5] [%]	Kd [6] [nM]	koff [6] [s⁻¹]	kon [6] [M⁻¹ s⁻¹]	t1/2 [6] [min]	Kd [7] [nM]	koff [7] [s⁻¹]	kon [7] [M⁻¹ s⁻¹]	t1/2 [7] [min]	other results
B1	100	97	0.384	0.00111	2.93e+06	10.4	22	14.2											Kd [2]: 0.201 nM; koff [2]: 0.000765 s⁻¹; kon [2]: 3.8e+06 M⁻¹ s⁻¹; t1/2 [2]: 15.1 min
B2									95	65	6.54	0.00338	517000	3.42					
B3									99	95	0.43	0.00133	3.1e+06	8.69	0.2	0.000967	4.88e+06	11.9	
B4									97	95	0.41	0.00153	3.75e+06	7.55	0.21	0.00104	4.89e+06	11.1	
B5	100	99	1.31	0.00261	2.02e+06	4.42	59.1	36.9											Kd [2]: 0.641 nM; koff [2]: 0.00162 s⁻¹; kon [2]: 2.54e+06 M⁻¹ s⁻¹; t1/2 [2]: 7.1 min
B6	95	66	3.37	0.00281	851000	4.1	244	115											
B7									98	98	1.54	0.00295	1.92e+06	3.92	0.71	0.00272	3.85e+06	4.25	
B8									97	96	0.63	0.00115	1.83e+06	10	0.38	0.000921	2.44e+06	12.5	
